Target: T1, (His)6-Lif1-K301R (S. cerevisiae, UniProt P53150 1-421, K301R)
T1 sequence (looked up): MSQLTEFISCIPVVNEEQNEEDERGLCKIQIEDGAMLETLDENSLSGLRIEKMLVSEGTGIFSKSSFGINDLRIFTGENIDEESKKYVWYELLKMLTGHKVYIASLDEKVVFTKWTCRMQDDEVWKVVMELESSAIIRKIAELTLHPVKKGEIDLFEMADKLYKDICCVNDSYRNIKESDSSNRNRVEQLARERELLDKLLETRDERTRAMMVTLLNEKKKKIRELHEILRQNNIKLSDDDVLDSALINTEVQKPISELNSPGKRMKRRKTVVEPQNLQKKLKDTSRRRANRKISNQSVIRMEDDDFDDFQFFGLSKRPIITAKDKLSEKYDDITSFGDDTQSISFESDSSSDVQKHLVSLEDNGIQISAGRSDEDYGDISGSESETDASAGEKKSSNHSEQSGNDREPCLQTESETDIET
Test: pull-down

B1: MBP-Nej1 (natural protein, S. cerevisiae, UniProt Q06148 1-342, looked up)
chain: MDSELKGQQLSDAEWCVKKINGEGNCLLLFLPMSSPTTIVMIVLVSLERLVPYVFKLSQTQLSQQCQSQGFTDSISLNLIKLKLMDILQAPQEINQIGLVDSNLVFSFDVSADITVSINSVPSHVTKDMFYMILQSLCMLLLKLVNLSTQYHYVQRDILNEKQKCLDFLLISLRDLDGGSKVISQWAPENSKNYESLQQCTDDDIIKKLLHKGKFQHQEFLADSLKTLLSLRNKFQDVSRFEESGELNKKERVRFPAVNHFYNDDFELQADPTNEARPNSRGKIKPKTDFKPKSRESSTSSQLRLENFSESEATPEKTKSSSSLVEEYPQKKRKFGKVRIKN
Q: Does B1 bind?
A: binds

Source: article PMC3664818 (Nucleic Acids Research, 2013)
